# ± gives the standard deviation of the averaged measurements.
# Test system: ATP
# Assay: switch fluorescence ratio, 500 uM ATP over buffer (Cy3 cluster intensity, sum of 5 cycles each) (fold (ratio)); higher = stronger signal-on switching upon ATP binding; sequences stand for … in TCGTCGGCAGCGTCAGATGTGTATAAGAGACAGTTTTTTTTTTTTTTTTTTTTTTTTT…TC
# Settings: aptamer strand: ATP DNA aptamer (quencher-CACCTGGGGGAGTATTGCGGAGGAAGG + anchor), 100 nM annealed; ATP concentration: 500 uM
# Summary of the method: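 Five buffer/ATP imaging cycles were run on Cy3-labelled switching-strand clusters on a modified Illumina MiSeq flow-cell, with NaOH stripping and re-annealing between cycles. In each cycle, clusters annealed to 100 nM quencher-labelled ATP aptamer were imaged in selection buffer, then after 15 min with 500 uM ATP at 22 °C. Per cluster, the fluorescence ratio is summed target-cycle over summed buffer-cycle Cy3 intensity, averaged per switch-domain sequence. Only clusters within 100-1000 RFU were kept.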
# 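Further: ATP exposure 15 min at 22 °C before imaging.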
row,Sequence,switch fluorescence ratio
1,TTGGGGGGAT,1.02 ± 0.053
2,TTGGGGGGCT,1.01 ± 0.09
3,TTGGGGGGG,1.02 ± 0.035
4,TTGGGGGGTA,0.987 ± 0.028
5,TTGGGGGTGC,0.997 ± 0.052
6,TTGGGGGTTC,1.01 ± 0.05
7,TTGGGGTATC,1.01 ± 0.02
8,TTGGGGTCGG,0.999 ± 0.037
9,TTGGGGTCTT,1.02 ± 0.043
10,TTGGGGTGCT,0.992 ± 0.035
11,TTGGGTATTG,0.966 ± 0.034
12,TTGGGTCTCC,1.03 ± 0.027
13,TTGGGTCTTC,0.9736 ± 0.0014
14,TTGGGTGCAG,1.016 ± 0.0075
15,TTGGGTGCCG,1.03 ± 0.048
16,TTGGGTTAAG,0.983 ± 0.015
17,TTGGGTTAGG,0.979 ± 0.021
18,TTGGGTTATG,1 ± 0.013
19,TTGGGTTATT,0.979 ± 0.029
20,TTGGGTTCCG,0.996 ± 0.057
21,TTGGGTTGCT,1.12 ± 0.21
22,TTGGGTTGTT,0.986 ± 0.033
23,TTGGGTTTGT,0.997 ± 0.017
24,TTGGTAAGAC,1.14 ± 0.12
25,TTGGTAGCGG,1.02 ± 0.034

row,Sequence,switch fluorescence ratio
1,TTGGTAGGGT,0.995 ± 0.031
2,TTGGTAGTGC,0.973 ± 0.015
3,TTGGTATGTG,0.968 ± 0.017
4,TTGGTCGCGT,1.003 ± 0.0019
5,TTGGTCGGGA,1.15 ± 0.2
6,TTGGTGCAGC,1.025 ± 0.0075
7,TTGGTGCCTT,1.07 ± 0.033
8,TTGGTGGCGG,0.978 ± 0.028
9,TTGGTGGGCA,0.993 ± 0.038
10,TTGGTGGGTA,0.988 ± 0.013
11,TTGGTGGGTG,1.01 ± 0.045
12,TTGGTGGTCC,0.999 ± 0.012
13,TTGGTGGTTC,0.99 ± 0.037
14,TTGGTGTCGC,1.016 ± 0.0034
15,TTGGTGTCTT,0.959 ± 0.011
16,TTGGTTAAGT,1.01 ± 0.046
17,TTGGTTAGGG,0.986 ± 0.027
18,TTGGTTATAG,1.01 ± 0.011
19,TTGGTTATCG,0.97068 ± 0.00069
20,TTGGTTCGCC,1.003 ± 0.0097
21,TTGGTTGAGA,0.9939 ± 0.0071
22,TTGGTTGCGG,1.02 ± 0.024
23,TTGGTTTAGG,0.983 ± 0.022
24,TTGGTTTATC,1 ± 0.015
25,TTGGTTTTAA,1.03 ± 0.014

row,Sequence,switch fluorescence ratio
1,TTGTAATGAT,0.988 ± 0.027
2,TTGTAATTAG,1 ± 0.039
3,TTGTACGCTA,1.82 ± 0.73
4,TTGTACGTGG,1.07 ± 0.023
5,TTGTAGCTTT,1.12 ± 0.089
6,TTGTAGGAGG,0.9811 ± 0.0032
7,TTGTAGGATA,0.994 ± 0.012
8,TTGTAGGGGT,1.02 ± 0.052
9,TTGTAGGGT,0.986 ± 0.014
10,TTGTAGTCTC,1.03 ± 0.11
11,TTGTATTTA,1.01 ± 0.05
12,TTGTATTTTG,0.985 ± 0.038
13,TTGTATTTTT,0.98 ± 0.033
14,TTGTCATTTT,1.04 ± 0.067
15,TTGTCGGCG,1 ± 0.013
16,TTGTCGGCTT,1.002 ± 0.0092
17,TTGTCGTGCC,1.031 ± 0.0098
18,TTGTCGTGTG,1 ± 0.033
19,TTGTCTGTTA,1 ± 0.043
20,TTGTGAAAAA,0.972 ± 0.026
21,TTGTGAAATT,0.993 ± 0.015
22,TTGTGAACCG,0.973 ± 0.014
23,TTGTGAATTA,0.982 ± 0.022
24,TTGTGAATTC,0.977 ± 0.043
25,TTGTGAGTTT,1 ± 0.055

row,Sequence,switch fluorescence ratio
1,TTGTGATGTG,0.986 ± 0.023
2,TTGTGATTAG,0.982 ± 0.032
3,TTGTGCAAGG,1.34 ± 0.47
4,TTGTGCATTT,1.01 ± 0.011
5,TTGTGCCGGG,0.9391 ± 0.0045
6,TTGTGCGGGA,0.999 ± 0.013
7,TTGTGCTGGG,0.998 ± 0.022
8,TTGTGCTTTA,1.006 ± 0.0062
9,TTGTGGAGAG,1.09 ± 0.12
10,TTGTGGAGTT,1.01 ± 0.017
11,TTGTGGGAGG,0.997 ± 0.033
12,TTGTGGGCGA,0.9947 ± 0.0014
13,TTGTGGGGAC,1 ± 0.033
14,TTGTGGGGGT,0.998 ± 0.02
15,TTGTGGGTTG,1.89 ± 1.2
16,TTGTGGTCGC,0.97 ± 0.024
17,TTGTGGTTGG,0.994 ± 0.021
18,TTGTGTAGTT,1.01 ± 0.024
19,TTGTGTATGC,0.958 ± 0.1
20,TTGTGTGGCA,1.02 ± 0.054
21,TTGTGTGGGT,0.993 ± 0.02
22,TTGTGTGGTT,0.963 ± 0.038
23,TTGTGTGTCA,0.994 ± 0.022
24,TTGTGTTGCG,1.03 ± 0.051
25,TTGTGTTGGG,1.01 ± 0.034

row,Sequence,switch fluorescence ratio
1,TTGTGTTTCT,0.9974 ± 0.0066
2,TTGTGTTTTG,1.16 ± 0.39
3,TTGTTACACA,1.05 ± 0.043
4,TTGTTAGGAT,1.07 ± 0.062
5,TTGTTATATT,0.983 ± 0.026
6,TTGTTCATAC,1.27 ± 0.37
7,TTGTTCGACT,1.02 ± 0.016
8,TTGTTCGGCC,0.992 ± 0.035
9,TTGTTGAAAC,1.03 ± 0.085
10,TTGTTGAGAG,1.02 ± 0.022
11,TTGTTGCCTG,0.9907 ± 0.0083
12,TTGTTGCGGG,0.977 ± 0.019
13,TTGTTGCTTA,1.05 ± 0.006
14,TTGTTGGGGT,1.05 ± 0.12
15,TTGTTGTGTG,0.973 ± 0.033
16,TTGTTGTTAT,0.991 ± 0.017
17,TTGTTTCCGA,1 ± 0.058
18,TTGTTTCGGT,1.02 ± 0.063
19,TTGTTTGATA,0.9883 ± 0.0073
20,TTGTTTGGAC,1.03 ± 0.013
21,TTGTTTGTGC,1.02 ± 0.023
22,TTGTTTTATC,1 ± 0.021
23,TTGTTTTTGG,0.987 ± 0.032
24,TTGTTTTTTA,1.01 ± 0.016
25,TTTAAAAAAC,1 ± 0.026

row,Sequence,switch fluorescence ratio
1,TTTAAAAATT,0.987 ± 0.026
2,TTTAAAACCA,1.004 ± 0.0039
3,TTTAAAACGG,1.01 ± 0.06
4,TTTAAAATCT,1.016 ± 0.0092
5,TTTAAAGACT,1.01 ± 0.056
6,TTTAAAGATG,0.999 ± 0.018
7,TTTAAAGATT,1.01 ± 0.037
8,TTTAAAGCGG,1.01 ± 0.026
9,TTTAAAGGGG,1.05 ± 0.14
10,TTTAAAGTGG,0.98 ± 0.015
11,TTTAAATAAA,1 ± 0.017
12,TTTAAATGCC,1.05 ± 0.05
13,TTTAACAACT,1.01 ± 0.017
14,TTTAACCGGT,1.047 ± 0.0073
15,TTTAACCTGC,1.06 ± 0.011
16,TTTAACGGGA,1.15 ± 0.17
17,TTTAACGTCA,1.05 ± 0.023
18,TTTAAGAAAT,0.986 ± 0.011
19,TTTAAGACGA,1.02 ± 0.014
20,TTTAAGGGAC,1.05 ± 0.021
21,TTTAAGTACG,1.21 ± 0.048
22,TTTAATAAAG,1.02 ± 0.041
23,TTTAATAATT,1.03 ± 0.032
24,TTTAATACGT,1.023 ± 0.0034
25,TTTAATCATT,1 ± 0.029

row,Sequence,switch fluorescence ratio
1,TTTAATGCGC,1.23 ± 0.37
2,TTTAATGGAG,1.02 ± 0.034
3,TTTAATGGGA,1.03 ± 0.05
4,TTTAATTA,1.01 ± 0.032
5,TTTAATTACT,1.04 ± 0.037
6,TTTAATTAGG,1.03 ± 0.028
7,TTTAATTTAT,1.09 ± 0.12
8,TTTAATTTTA,1 ± 0.02
9,TTTAATTTTT,0.988 ± 0.036
10,TTTACAGTTG,0.96 ± 0.014
11,TTTACCCGGC,1.1 ± 0.13
12,TTTACCGCTC,1.26 ± 0.073
13,TTTACGAGGT,1.01 ± 0.037
14,TTTACGAGTA,1.01 ± 0.012
15,TTTACGAGTG,1.03 ± 0.019
16,TTTACGCGCA,1.01 ± 0.03
17,TTTACGGAGG,1.03 ± 0.021
18,TTTACGTAGT,1.03 ± 0.019
19,TTTACGTGCG,1.054 ± 0.0061
20,TTTACGTTTT,1.03 ± 0.041
21,TTTACTCGCA,1.3 ± 0.12
22,TTTACTGAGA,1.01 ± 0.033
23,TTTACTTGTG,1.01 ± 0.035
24,TTTAGAAATA,1.05 ± 0.022
25,TTTAGAACTT,1.01 ± 0.077

row,Sequence,switch fluorescence ratio
1,TTTAGAAGGA,0.9796 ± 0.0067
2,TTTAGAGATG,1.24 ± 0.41
3,TTTAGATTGA,0.99606 ± 0.00096
4,TTTAGCACGA,1 ± 0.024
5,TTTAGCATAA,1.23 ± 0.13
6,TTTAGCGTCA,0.9891 ± 0.0056
7,TTTAGGACGA,0.981 ± 0.017
8,TTTAGGAGGT,1.04 ± 0.049
9,TTTAGGATCC,0.983 ± 0.022
10,TTTAGGCAT,0.986 ± 0.028
11,TTTAGGGAAA,0.961 ± 0.033
12,TTTAGGGACA,1.15 ± 0.1
13,TTTAGGGACT,1.02 ± 0.024
14,TTTAGGGATT,1.03 ± 0.037
15,TTTAGGGGGT,0.991 ± 0.023
16,TTTAGGTACT,1.25 ± 0.34
17,TTTAGGTAGT,0.975 ± 0.021
18,TTTAGGTCAA,0.9943 ± 0.0031
19,TTTAGGTGCA,1.16 ± 0.14
20,TTTAGGTGTG,1.02 ± 0.039
21,TTTAGGTTAA,0.9752 ± 0.0074
22,TTTAGGTTGT,0.9984 ± 0.0073
23,TTTAGTACGT,1.02 ± 0.057
24,TTTAGTATTT,1.01 ± 0.037
25,TTTAGTCGCA,0.998 ± 0.035

# — the supplement of paper PMC10126150
